Experiments:
[1] = biological target: T1, sortilin peptide RIFRSSDF on SPOT membrane; assay: SPOT length analysis, dot 37, HRP-S-protein detection
T1 sequence (peptide, C-terminus anchored to the cellulose membrane through a beta-alanine linker): RIFRSSDF

RSSDFAKN [2] = biological target: T2, RSSDFAKN; assay: SPOT length analysis, dot 40, anti-histidine detection
T2 sequence (peptide): RSSDFAKN

RSSDFA = biological target: T3, RSSDFA; assay: SPOT length analysis, dot 59, HRP-S-protein detection
T3 sequence (peptide): RSSDFA

KNFVQTD [3] = biological target: T4, KNFVQTD; assay: SPOT length analysis, dot 55, HRP-S-protein detection
T4 sequence (peptide): KNFVQTD

[4] = biological target: T5, sortilin peptide … on SPOT membrane; assay: SPOT length analysis, dot 1, anti-histidine detection
T5 sequence (peptide, C-terminus anchored to the cellulose membrane through a beta-alanine linker): RIFRSSDFAKNFVQTD

FAKNF = biological target: T6, FAKNF; assay: SPOT length analysis, dot 74, anti-histidine detection
T6 sequence (peptide): FAKNF

[5] = biological target: T7, …; assay: SPOT length analysis, dot 13, HRP-S-protein detection
T7 sequence (peptide): FRSSDFAKNFVQ

IFRS = biological target: T8, IFRS; assay: SPOT length analysis, dot 80, anti-histidine detection
T8 sequence (peptide): IFRS

[6] = biological target: T9, …; assay: SPOT length analysis, dot 4, HRP-S-protein detection
T9 sequence (peptide): RIFRSSDFAKNFVQ

[7] = biological target: T10, …; assay: SPOT length analysis, dot 33, HRP-S-protein detection
T10 sequence (peptide): SSDFAKNFV

SSDFAKNF [8] = biological target: T11, SSDFAKNF; assay: SPOT length analysis, dot 41, anti-histidine detection
T11 sequence (peptide): SSDFAKNF

KNFVQTD [9] = biological target: T4, KNFVQTD; assay: SPOT length analysis, dot 55, anti-histidine detection
[10] = biological target: T12, …; assay: SPOT length analysis, dot 7, anti-histidine detection
T12 sequence (peptide): RIFRSSDFAKNFV

IFRSSDF = biological target: T13, IFRSSDF; assay: SPOT length analysis, dot 47, HRP-S-protein detection
T13 sequence (peptide): IFRSSDF

NFVQ = biological target: T14, NFVQ; assay: SPOT length analysis, dot 89, anti-histidine detection
T14 sequence (peptide): NFVQ

FRSS = biological target: T15, FRSS; assay: SPOT length analysis, dot 81, anti-histidine detection
T15 sequence (peptide): FRSS

SDFAKNF = biological target: T16, SDFAKNF; assay: SPOT length analysis, dot 51, anti-histidine detection
T16 sequence (peptide): SDFAKNF

[11] = biological target: T17, …; assay: SPOT length analysis, dot 19, anti-histidine detection
T17 sequence (peptide): RSSDFAKNFVQ

RIFRS = biological target: T18, RIFRS; assay: SPOT length analysis, dot 67, HRP-S-protein detection
T18 sequence (peptide): RIFRS

[12] = biological target: T19, …; assay: SPOT length analysis, dot 31, anti-histidine detection
T19 sequence (peptide): FRSSDFAKN

DFAKNFV = biological target: T20, DFAKNFV; assay: SPOT length analysis, dot 52, anti-histidine detection
T20 sequence (peptide): DFAKNFV

[13] = biological target: T21, …; assay: SPOT length analysis, dot 29, anti-histidine detection
T21 sequence (peptide): RIFRSSDFA

RSSDFAKN [14] = biological target: T2, RSSDFAKN; assay: SPOT length analysis, dot 40, HRP-S-protein detection
IFRSSDFA = biological target: T22, IFRSSDFA; assay: SPOT length analysis, dot 38, HRP-S-protein detection
T22 sequence (peptide): IFRSSDFA

[15] = biological target: T23, sortilin peptide … (synthetic, soluble); assay: SPOT length analysis, dot 11 (peptide here cellulose-bound), HRP-S-protein detection
T23 sequence (peptide): RIFRSSDFAKNF

SSDFA = biological target: T24, SSDFA; assay: SPOT length analysis, dot 71, anti-histidine detection
T24 sequence (peptide): SSDFA

NFVQTD = biological target: T25, NFVQTD; assay: SPOT length analysis, dot 66, HRP-S-protein detection
T25 sequence (peptide): NFVQTD

[16] = biological target: T9, …; assay: SPOT length analysis, dot 4, anti-histidine detection
DFAKN [17] = biological target: T26, DFAKN; assay: SPOT length analysis, dot 73, HRP-S-protein detection
T26 sequence (peptide): DFAKN

NFVQT = biological target: T27, NFVQT; assay: SPOT length analysis, dot 77, HRP-S-protein detection
T27 sequence (peptide): NFVQT

AKNFVQTD = biological target: T28, AKNFVQTD; assay: SPOT length analysis, dot 45, HRP-S-protein detection
T28 sequence (peptide): AKNFVQTD

IFRSSD = biological target: T29, IFRSSD; assay: SPOT length analysis, dot 57, HRP-S-protein detection
T29 sequence (peptide): IFRSSD

[18] = biological target: T30, …; assay: SPOT length analysis, dot 5, anti-histidine detection
T30 sequence (peptide): IFRSSDFAKNFVQT

FRSSDFA = biological target: T31, FRSSDFA; assay: SPOT length analysis, dot 48, anti-histidine detection
T31 sequence (peptide): FRSSDFA

[19] = biological target: T32, …; assay: SPOT length analysis, dot 32, anti-histidine detection
T32 sequence (peptide): RSSDFAKNF

[20] = biological target: T33, …; assay: SPOT length analysis, dot 10, anti-histidine detection
T33 sequence (peptide): RSSDFAKNFVQTD

DFAKNFVQ = biological target: T34, DFAKNFVQ; assay: SPOT length analysis, dot 43, anti-histidine detection
T34 sequence (peptide): DFAKNFVQ

FRSSDF = biological target: T35, FRSSDF; assay: SPOT length analysis, dot 58, HRP-S-protein detection
T35 sequence (peptide): FRSSDF

[21] = biological target: T36, …; assay: SPOT length analysis, dot 16, anti-histidine detection
T36 sequence (peptide): RIFRSSDFAKN

[22] = biological target: T37, …; assay: SPOT length analysis, dot 30, anti-histidine detection
T37 sequence (peptide): IFRSSDFAK

SSDFAKNF [23] = biological target: T11, SSDFAKNF; assay: SPOT length analysis, dot 41, HRP-S-protein detection
AKNF = biological target: T38, AKNF; assay: SPOT length analysis, dot 87, anti-histidine detection
T38 sequence (peptide): AKNF

FVQT = biological target: T39, FVQT; assay: SPOT length analysis, dot 90, HRP-S-protein detection
T39 sequence (peptide): FVQT

[24] = biological target: T40, …; assay: SPOT length analysis, dot 25, HRP-S-protein detection
T40 sequence (peptide): RSSDFAKNFV

[25] = biological target: T41, …; assay: SPOT length analysis, dot 18, HRP-S-protein detection
T41 sequence (peptide): FRSSDFAKNFV

SSDF = biological target: T42, SSDF; assay: SPOT length analysis, dot 83, anti-histidine detection
T42 sequence (peptide): SSDF

DFAKN [26] = biological target: T26, DFAKN; assay: SPOT length analysis, dot 73, anti-histidine detection
FRSSD = biological target: T43, FRSSD; assay: SPOT length analysis, dot 69, anti-histidine detection
T43 sequence (peptide): FRSSD

B1: recombinant his-S-tagged pro-domain of human BDNF (residues Ala1-Arg110), from pET-30 Xa/LIC, E. coli (protein, not shown: small tags and cut ends)
chain: APMKEANIRGQGGLAYPGVRTHGTLESVNGPKAGSGLTSLADTFEHVIEELLDEDQKVRPNEENNKDADLYTSRVMLSSQVPLEPPLLFLLEEYKNYLDAANMSMRVRR
[1]
  BLU Sprotein: 114000 BLU
RSSDFAKN [2]
  BLU His: 18700 BLU
RSSDFA
  BLU Sprotein: 15900 BLU
KNFVQTD [3]
  BLU Sprotein: 16800 BLU
[4]
  BLU His: 57000 BLU
FAKNF
  BLU His: 31900 BLU
[5]
  BLU Sprotein: 199000 BLU
IFRS
  BLU His: 51100 BLU
[6]
  BLU Sprotein: 172000 BLU
[7]
  BLU Sprotein: 19000 BLU
SSDFAKNF [8]
  BLU His: 15500 BLU
KNFVQTD [9]
  BLU His: 18300 BLU
[10]
  BLU His: 102000 BLU
IFRSSDF
  BLU Sprotein: 27800 BLU
NFVQ
  BLU His: 14700 BLU
FRSS
  BLU His: 20100 BLU
SDFAKNF
  BLU His: 17200 BLU
[11]
  BLU His: 26000 BLU
RIFRS
  BLU Sprotein: 137000 BLU
[12]
  BLU His: 20400 BLU
DFAKNFV
  BLU His: 17300 BLU
[13]
  BLU His: 43400 BLU
RSSDFAKN [14]
  BLU Sprotein: 17200 BLU
IFRSSDFA
  BLU Sprotein: 24400 BLU
[15]
  BLU Sprotein: 166000 BLU
SSDFA
  BLU His: 15800 BLU
NFVQTD
  BLU Sprotein: 14500 BLU
[16]
  BLU His: 141000 BLU
DFAKN [17]
  BLU Sprotein: 15600 BLU
NFVQT
  BLU Sprotein: 15600 BLU
AKNFVQTD
  BLU Sprotein: 15300 BLU
IFRSSD
  BLU Sprotein: 18100 BLU
[18]
  BLU His: 53400 BLU
FRSSDFA
  BLU His: 16600 BLU
[19]
  BLU His: 21100 BLU
[20]
  BLU His: 19800 BLU
DFAKNFVQ
  BLU His: 15500 BLU
FRSSDF
  BLU Sprotein: 16900 BLU
[21]
  BLU His: 53000 BLU
[22]
  BLU His: 20800 BLU
SSDFAKNF [23]
  BLU Sprotein: 16300 BLU
AKNF
  BLU His: 14600 BLU
FVQT
  BLU Sprotein: 13600 BLU
[24]
  BLU Sprotein: 25400 BLU
[25]
  BLU Sprotein: 448000 BLU
SSDF
  BLU His: 14100 BLU
DFAKN [26]
  BLU His: 17800 BLU
FRSSD
  BLU His: 15600 BLU
